Laboratory results: article PMC6771557 (Diabetes, Obesity & Metabolism, 2019)

Columns and labels:
[1] = tested on: postprandial plasma glucose (PPG); experiment: Postprandial plasma glucose after standardized breakfast, single s.c. dose, phase I crossover study; format: in vivo, Japanese people with type 2 diabetes mellitus; details: insulin glargine 5 U single s.c. dose; at 2 hours post-dose
Description: This was a phase I, single‐centre, randomized, open‐label, placebo‐controlled, four‐sequence, four‐period, four‐treatment crossover, single‐dose study.
Inclusion and exclusion criteria are provided in Appendix S1. […] There was a washout period of 7 to 14 days between dose administrations.
The secondary endpoints are described in Appendix S1.
The PD analyses were performed using the evaluable PD population. PPG–AUC0–2h was analysed using a linear mixed‐effects model with treatment group, sequence and treatment period as fixed effects, patient‐within‐sequence as a random effect, and baseline value as a covariate. The least squares (LS) mean differences were calculated between iGlarLixi groups and placebo, between the two iGlarLixi groups, and between iGlarLixi 5 U/5 μg and insulin glargine. The corresponding 95% confidence intervals and P values were calculated within the linear mixed‐effect model framework. P values < 0.05 were taken to indicate statistical significance. No adjustment for multiplicity was performed. […]
Secondary endpoints for PD included maximum postprandial plasma glucose (PPG) (PPG-Cmax), time of PPG-Cmax (PPG-tmax) and PPG-AUC0-5. In addition, serum insulin, serum C-peptide, and plasma glucagon concentrations were analyzed as secondary endpoints, and appropriate PD parameters such as AUCs were evaluated as applicable. […]

[2] = Safety: adverse events and hypoglycaemia; format: in vivo, Japanese people with type 2 diabetes mellitus; details: n=20
Description: Patient safety was monitored from adverse events (AEs) spontaneously reported by a patient or noted by an investigator, including hypoglycemic events. All AEs, regardless of seriousness or relationship to the study drug, were recorded in each patient’s records from the time the informed consent form was signed. Treatment emergent AEs (TEAEs) were defined as AEs that occurred or worsened or became serious during the treatment phase.
Evaluation of safety was based on the review of individual values and descriptive statistics. All safety analyses were performed in the safety population. Individual values were flagged for potentially clinically significant abnormalities (PCSAs) if appropriate.

Substance: insulin glargine
- time of peak of mean plasma glucose concentration after breakfast start [1]: approximately 1 hour
- Patients with any TEAE ([2]; insulin glargine 5U single s.c. dose, up to 24 hours after injection): 0 n
- Patients with any TEAE leading to permanent treatment discontinuation ([2]; insulin glargine 5U): 0 n
- Patients with any severe TEAE ([2]; insulin glargine 5U): 0 n
- Patients with any treatment emergent SAE ([2]; insulin glargine 5U): 0 n
